The target in this series is T1, (GR)10 dipeptide repeat peptide.
T1 chain: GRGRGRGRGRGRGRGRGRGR

Several values for one entry are separate records, joined by “and”; a condition that tells them apart may be missing. Equal values may be shown once.

The values that follow come from US20230056486.

B1: clostripain (protein)
chain: NKNQKVTIMYYCDADNNLEGSLLNDIEEMKTGYKDSPNLNLIALVDRSPRYSSDEKVLGEDFSDTRLYKIEHNKANRLDGKNEFPEISTTSKYEANMGDPEVLKKFIDYCKSNYEADKYVLIMANHGGGAREKSNPRLNRAICWDDSNLDKNGEADCLYMGEISDHLTEKQSVDLLAFDACLMGTAEVAYQYRPGNGGFSADTLVASSPVVWGPGFKYDKIFDRIKAGGGTNNEDDLTLGGKEQNFDPATITNEQLGALFVEEQRDSTHANGRYDQHLSFYDLKKAESVKRAIDNLAVNLSNENKKSEIEKLRGSGIHTDLMHYFDEYSEGEWVEYPYFDVYDLCEKINKSENFSSKTKDLASNAMNKLNEMIVYSFGDPSNNFKEGKNGLSIFLPNGDKKYSTYYTSTKIPHWTMQSWYNSIDTVKYGLNPYGKLSWCKDGQDPEINKVGNWFELLDSWFDKTNDVTGGVNHYQW
Take B1: the (GR)10 concentration left at 0 min (LC/MS; 50 µM start; TFA added before enzyme) was 39.7 µM and 37.9 µM; the “(GR)10 concentration left at 30 min (LC/MS; 50 µM start)” value is given as “BLQ”; the “(GR)10 concentration left at 60 min (LC/MS; 50 µM start)” value is on record as “BLQ”; the “(GR)10 concentration left at 120 min (LC/MS; 50 µM start)” value is recorded as “BLQ”. The (GR)10 left in CSF; Clostripain + DTT-Immobilized-5 min reaction (LC/MS; 200 µM (GR)10 in human CSF) (normalized µM) was 58; the (GR)10 left in CSF; Clostripain + DTT-Immobilized-60 min reaction (LC/MS; 200 µM (GR)10 in human CSF) (normalized µM) is -0; the (GR)10 left in CSF; Clostripain-Immobilized-5 min reaction, no DTT (LC/MS; 200 µM (GR)10 in human CSF) (normalized µM) was 395; the (GR)10 left in CSF; Clostripain-Immobilized-60 min reaction, no DTT (LC/MS; 200 µM (GR)10 in human CSF) (normalized µM) is -0. In addition, the (GR)10 left; Clostripain + DTT-Immobilized-5 min reaction (LC/MS) (µM (normalized to GR concentration)) is -0, the (GR)10 left; Clostripain + DTT-immobilized-60 min reaction (LC/MS) (µM (normalized to GR concentration)) is -0, the (GR)10 left; Clostripain + DTT-in solution-5 min reaction (LC/MS) (µM (normalized to GR concentration)) worked out at 5.7 and the (GR)10 left; Clostripain + DTT-in solution-60 min reaction (LC/MS) (µM (normalized to GR concentration)) was -0. Further, the (GR)10 left; Clostripain + DTT-resin wash from 5 min reaction (LC/MS) (µM (normalized to GR concentration)) is -0; the (GR)10 left; Clostripain + DTT-resin wash from 60 min reaction (LC/MS) (µM (normalized to GR concentration)) was -0; the (GR)10 left; Clostripain-Immobilized-5 min reaction, no DTT (LC/MS) was 0 µM; the (GR)10 left; Clostripain-immobilized-60 min reaction, no DTT (LC/MS) came to 0 µM. The same protein came in with a (GR)10 left; Clostripain-in solution-5 min reaction, no DTT (LC/MS) of 12.4 µM; a (GR)10 left; Clostripain-in solution-60 min reaction, no DTT (LC/MS) of 0 µM; a (GR)10 left; Clostripain-resin wash from 5 min reaction, no DTT (LC/MS) of 0 µM; a (GR)10 left; Clostripain-resin wash from 60 min reaction, no DTT (LC/MS) of 0 µM.

B2: Proteinase K (protein)
chain: AAQTNAPWGLARISSTSPGTSTYYYDESAGQGSCVYVIDTGIEASHPEFEGRAQMVKTYYYSSRDGNGHGTHCAGTVGSRTYGVAKKTQLFGVKVLDDNGSGQYSTIIAGMDFVASDKNNRNCPKGVVASLSLGGGYSSSVNSAAARLQSSGVMVAVAAGNNNADARNYSPASEPSVCTVGASDRYDRRSSFSNYGSVLDIFGPGTSILSTWIGGSTRSISGTSMATPHVAGLAAYLMTLGKTTAASACRYIADTANKGDLSNIPFGTVNLLAYNNYQA
Consider B2, for which the (GR)10 concentration left at 0 min (LC/MS; 50 µM start; TFA added before enzyme) was 44.9 µM and 49.4 µM; the (GR)10 concentration left at 2.5 min (LC/MS; 50 µM start) was 55.8 µM and 55.4 µM; the (GR)10 concentration left at 5 min (LC/MS; 50 µM start) is 54.4 µM and 48.8 µM; the (GR)10 concentration left at 10 min (LC/MS; 50 µM start) is 50.3 µM and 44.1 µM.
